The values that follow are results of earlier work, collected in PMC3985900.

The term pKa denotes the pH at which an ionisable group is half protonated.

One data set addresses Asp85 (UniProt position 98, WARYADWLFTT). Description: UV-vis. The note with it: Resting state, with retinal bound.
The target in the next data set is Glu85 (UniProt position 98, WARYAEWLFTT). Kind of data set: UV-vis. The note with it: Resting state, with retinal bound.

As to “Bacteriorhodopsin (native, purple membrane) (Halobacterium salinarum)”, the pKa entry with Asp85 is reported as “∼3”.

For the substance “Bacteriorhodopsin D85E (Halobacterium salinarum; D85E)”, in the data set with Glu85, the pKa is reported as 9.4.
